The record followed here is US20250026849A1 (ARCELLX, published 2025).

B1: D-domain SEQ ID NO: 327 (designed binder)
chain: MGSWTSFKHGLAGIKRVLEALGGSEAELATFEWYIAQFERHLQAYKGKGNPEVEALRKEAAAIRDELQAYRHN
B2: D-domain SEQ ID NO: 328 (designed binder)
chain: MGSWQSFKHALADIKINLEALGGSEAELAQFEYAIAVFEYRLQAYKGKGNPEVEALRKEAAAIRDELQAYRHN
B3: D-domain SEQ ID NO: 329 (designed binder)
chain: MGSWHTFKEALAQIKGELEALGGSEAELASFEYAIAVFEYRLQMYKGKGNPEVEALRKEAAAIRDELQAYRHN
B4: D-domain SEQ ID NO: 317 (designed binder)
chain: MGSWEVFKHELAVIKDYLEALGGSEAELAHFEWGIAWFEGFLQDYKGKGNPEVEALRKEAAAIRDELQAYRHN
B5: D-domain SEQ ID NO: 316 (designed binder)
chain: MGSWLDFKEGLADIKRSLEALGGSEAELADFEGVIALFEWKLQTYKGKGNPEVEALRKEAAAIRDELQAYRHN
B6: D-domain SEQ ID NO: 314 (designed binder)
chain: MGSWGYFKTGLAIIKAQLEALGGSEAELADFELWIAQFEETLQFYKGKGNPEVEALRKEAAAIRDELQAYRHN
B7: D-domain SEQ ID NO: 313 (designed binder)
chain: MGSWGYFKHGLAHIKSSLEALGGSEAELADFEVWIAAFENELQEYKGKGNPEVEALRKEAAAIRDELQAYRHN
B8: D-domain SEQ ID NO: 49 (designed binder)
chain: MGSWTEFAWRLQAIHQRLQALGGSEAELAAFEKEIAAFESELQAYKGKGNPEVEELRVYAAKIRISLQAYRHN
B9: D-domain SEQ ID NO: 46 (designed binder)
chain: MGSWREFAWRLVAINSRLKALGGSEAELAAFEKEIAAFESELQAYKGKGNPEVEELRHYAASIRDGLQAYRHN
B10: D-domain SEQ ID NO: 44 (designed binder)
chain: MGSWYEFSWRLQAIHQRLNALGGSEAELAAFEKEIAAFESELQAYKGKGNPEVEELRAYAAGIRGALQAYRHN
B11: D-domain SEQ ID NO: 45 (designed binder)
chain: MGSWHEFTWRLIAIQQRLEALGGSEAELAAFEKEIAAFESELQAYKGKGNPEVEELRAYAAGIRHHLQAYRHN
B12: D-domain SEQ ID NO: 315 (designed binder)
chain: MGSWAYFKYGLAVIKLHLEALGGSEAELADFERYIAEFEYELQAYKGKGNPEVEALRKEAAAIRDELQAYRHN
B13: D-domain SEQ ID NO: 325 (designed binder)
chain: MGSWISFKDNLAMIKEFLEALGGSEAELAVFEWYIATFEVELQDYKGKGNPEVEALRKEAAAIRDELQAYRHN
B14: D-domain SEQ ID NO: 326 (designed binder)
chain: MGSWHIFKDNLATIKAFLEALGGSEAELAVFEWYIAKFEEELQGYKGKGNPEVEALRKEAAAIRDELQAYRHN
B15: D-domain SEQ ID NO: 318 (designed binder)
chain: MGSWIVFKQSLAWIKEHLEALGGSEAELAEFEFYIANFEHTLQNYKGKGNPEVEALRKEAAAIRDELQAYRHN
B16: D-domain SEQ ID NO: 319 (designed binder)
chain: MGSWIYFKDSLAYIKKYLEALGGSEAELATFEYYIANFEHELQYYKGKGNPEVEALRKEAAAIRDELQAYRHN
B17: D-domain SEQ ID NO: 338 (designed binder)
chain: MGSWTTLKWRLAHIKQHLEALGGSEAELALFEYDIAHFEELLQYYKGKGNPEVEALRKEAAAIRDELQAYRHN
B18: D-domain SEQ ID NO: 335 (designed binder)
chain: MGSWIIFKGYLAHIKHHLEALGGSEAELADFEFYIAIFEMELQKYKGKGNPEVEALRKEAAAIRDELQAYRHN
B19: D-domain SEQ ID NO: 322 (designed binder)
chain: MGSWREFKYGLAHIKRVLEALGGSEAELAVFEYYIAKFEQELQEYKGKGNPEVEALRKEAAAIRDELQAYRHN
B20: D-domain SEQ ID NO: 324 (designed binder)
chain: MGSWVEFKHNLAWIKVTLEALGGSEAELAVFEYYIAQFEEQLQEYKGKGNPEVEALRKEAAAIRDELQAYRHN
B21: D-domain SEQ ID NO: 323 (designed binder)
chain: MGSWIQFKYGLAHIKRTLEALGGSEAELAVFEWYIADFEQQLQGYKGKGNPEVEALRKEAAAIRDELQAYRHN
B22: D-domain SEQ ID NO: 331 (designed binder)
chain: MGSWTNFKEGLAEIKRDLEALGGSEAELARFEYVIAVFEFRLQNYKGKGNPEVEALRKEAAAIRDELQAYRHN
B23: D-domain SEQ ID NO: 336 (designed binder)
chain: MGSWYLFQSHLAHIKHHLEALGGSEAELAWFEFTIAGFEQELQHYKGKGNPEVEALRKEAAAIRDELQAYRHN
B24: D-domain SEQ ID NO: 330 (designed binder)
chain: MGSWTDFKTSLADIKAELEALGGSEAELAKFEYYIAIFEYRLQEYKGKGNPEVEALRKEAAAIRDELQAYRHN
B25: D-domain SEQ ID NO: 332 (designed binder)
chain: MGSWHTFKDGLAEIKSELEALGGSEAELAMFEYVIAIFEYRLQNYKGKGNPEVEALRKEAAAIRDELQAYRHN
B26: D-domain SEQ ID NO: 337 (designed binder)
chain: MGSWYSFKWTLARIKLELEALGGSEAELAYFENVIAHFEMELQSYKGKGNPEVEALRKEAAAIRDELQAYRHN
B27: D-domain SEQ ID NO: 333 (designed binder)
chain: MGSWQFFKEHLASIKFWLEALGGSEAELAFFEDAIADFEYHLQNYKGKGNPEVEALRKEAAAIRDELQAYRHN
B28: D-domain SEQ ID NO: 334 (designed binder)
chain: MGSWTYFKEHLASIKFWLEALGGSEAELAFFEDAIAEFEKDLQYYKGKGNPEVEALRKEAAAIRDELQAYRHN
B29: D-domain SEQ ID NO: 339 (designed binder)
chain: MGSWYGFKWYLATIKKHLEALGGSEAELALFETEIATFELWLQDYKGKGNPEVEALRKEAAAIRDELQAYRHN
B30: D-domain SEQ ID NO: 320 (designed binder)
chain: MGSWDHFKYNLAWIKKYLEALGGSEAELATFEWYIANFEKRLQDYKGKGNPEVEALRKEAAAIRDELQAYRHN
B31: D-domain SEQ ID NO: 321 (designed binder)
chain: MGSWFTFKQNLAWIKLHLEALGGSEAELARFEYYIADFENKLQLYKGKGNPEVEALRKEAAAIRDELQAYRHN

In the test the target is T1, BCMA (Homo sapiens (Human), UniProt Q02223 1-54, limits assumed).
T1 sequence: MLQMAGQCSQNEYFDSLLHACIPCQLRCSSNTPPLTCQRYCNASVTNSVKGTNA
The test can be described thus: ELISA, format not described. Further details: unit not given here.
The molecule B1 showed an ELISA_avg of 9.77.

Molecule B2 returned an ELISA_avg of 13.7.

As for B3, the ELISA_avg was determined as 6.76. The molecule B4 showed an ELISA_avg of 9.33. Molecule B5 showed an ELISA_avg of 3.03. Molecule B6 came in with an ELISA_avg of 12.8. As to B7, the ELISA_avg is 18.5. Under B8 stands 18.7; under B9, 9.66; under B10, 9.49. To B11 belongs 17.1; to B12, 13.4.

In turn, B13 registered an ELISA_avg of 7.16. To B14 belongs 3.47. Molecule B15 registered an ELISA_avg of 10.6. Consider B16, for which the ELISA_avg was 3.2. Under B17 stands 17.8. Molecule B18 showed an ELISA_avg of 5.18. Under B19 stands 14.7; under B20, 15.8; under B21, 8.36. To B22 belongs 12.3. Turning to B23, the ELISA_avg was 7.69. For B24, the ELISA_avg was determined as 18.8. B25 showed an ELISA_avg of 10.7. For B26, the ELISA_avg came out at 4.05. Molecule B27 came in with an ELISA_avg of 10.6. B28 registered an ELISA_avg of 6.6. Under B29 stands 10.7. For B30, the ELISA_avg came to 9.81.

The molecule B31 displayed an ELISA_avg of 14.2.
